The values below are quoted from earlier work in publication PMC7369927.

Like-named read-outs stand apart in the source and are kept apart here.

For orientation: Kd means a measure of binding affinity in units of concentration.

Data set [1] addresses AT1 receptor (UniProt P30556).
Data set [2] addresses AT1 receptor (UniProt P30556). The source holds these as a separate data set.

Sequence of UniProt P30556 (P30556 whole entry): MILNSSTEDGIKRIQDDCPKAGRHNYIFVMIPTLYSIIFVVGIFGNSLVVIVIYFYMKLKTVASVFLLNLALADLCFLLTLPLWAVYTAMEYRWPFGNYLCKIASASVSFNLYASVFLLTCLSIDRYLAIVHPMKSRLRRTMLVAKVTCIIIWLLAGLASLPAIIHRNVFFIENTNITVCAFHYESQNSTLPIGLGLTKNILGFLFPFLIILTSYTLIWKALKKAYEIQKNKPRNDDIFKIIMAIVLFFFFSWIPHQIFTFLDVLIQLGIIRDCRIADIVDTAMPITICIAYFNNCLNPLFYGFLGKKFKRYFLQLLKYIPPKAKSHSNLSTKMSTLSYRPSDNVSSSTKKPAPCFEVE

As to Ang II (from UniProt P01019), the Kd in the data set with AT1 receptor [1] is 2 nM.

As for Ang-(1-7) (from UniProt P01019), in the data set with AT1 receptor [2], the Kd was 200 nM.
